From the domain aggregation screens of Martell et al. (2025)

Assay: soluble fraction after stress (log2 fold change); higher = more stays soluble; pooled small domains, quantitative proteomics
Details: stress: 50 degC
Procedure, shortened: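 Pooled custom libraries of small protein domains were each held under stress at 50°C. The read-out, high-throughput quantitative proteomics, tracked how much of each protein stayed soluble. This is reported as a base-two log fold change used to indicate aggregation propensity. Higher values mean more protein remains in solution.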

Sequence | soluble fraction (log2)
HMPIDQAKRKKEIIQNFGIRKIYKFSEIFDLKFGRDNIIVTFLIILDMIKEGVVEINENKEEIEFEYK | -0.166
HMAEPTLNERLREALSDPAKLKIAKAIKAKYPIITARDIDTFLNMHEKDIENGADPMDEFEEFFHANY | 0.127
HMRDFTQPQTASIGPRMREALARGTMTVEELREQFRTQEFPHESVRTAFLEELERVAAELGLA | -0.0676
HMILESREKYLGEVLEVLVEEEKEGEYFGYSQNYLRVKFKLEEKNLINQLINIKIKSIEDDILIGEKEN | -1.46
HMDKSFYETFEKIGHGDFDKGLNHVWQHANDGNGTATLLLSKLFLEFGDLDNFEKYLNISAEQSNPVAMKI | -0.305
HMVPFISVTPTSLSFAKGGESKTVDIEASGAFSVGKVPTGFNLEVVNGRITITADANTGAARNGSVEFILA | -0.0614
HMNSLQLGSRGPTVSALQAKLNTMLVPSPRLVADGSFGPKTAQAVKAFQQMKRLVADGVVGPKTAAALGLS | -0.00877
HMSESIFTLYGDEKFEKIRYYLKERGFITLDALARFDFDELLFVPGVSELLISEAKQLFSRYDTSSLAAKE | -0.17
HMEGVNLTVQEAKQMAAIIAPLLKQGQSPYQIVTNHPELGISEKTLYNYIENDVFHEIAGITVMDL | -0.365
HMKTLGMDKGVNIALNDAGLRAEDVSNLSAHYDTEDGVPVYEIKFTAGGFSYEYQIKASDGTIIEADRDAA | -0.108
HMFPQQGEIRQGVIASITPDQILVNVGTKSEGIISGKELEAISKSERDSLNVDQKIAVYILDPEDSNG | 0.259
HMPDLSAEERNIVEALQKSNDLQVNLIAVKTGMDMGTLSATLFGLEMKGLVKLMAGGTYHLI | -0.141
HMNSLQNNLKQARTRVGLTQGVLASQAGISRQAYSTLESGSANPSTEVALRLAQALQERVELLFYLPER | -0.705
HMNEKTGTLTVYSSPGWAKVYIDGEYKGITPVMANLTYGDHYVKLTLDGYDSIGNHIDVNSPDQSYTGKF | -0.494
HMRDTAKTLLAMEVVGENNKKNLQAFGIQKGDQNYQTAVVVRLMQKALMEGDTSAIRLIGELTGD | -0.197
HMSYIGEEKAKSIAVSNVKGAGTNNVVKVEFDYDDGRAVYEVKVVYNAMEYEFEIDASNGKILSRDAESIY | -0.309
HMDIRVAHVDDDMSFGEAFAQARSQVGPGGVFEWHGKLYGTYTAEEWASMSPAERSQYQQAVFN | -0.0545
HMIVAHEINRHLGESDQPVEIPDNRREGAVAELLKTFNNDDAFREMDDGKYEVALDGEKVREAARSLLA | 0.027
HMRVELVVVPELRQQLLPEARELANSAGLQLRVRGQSPADETRTIVVTQSPAAGTRVAARSIVLVE | -0.539

Sequence | soluble fraction (log2)
HMNNKVAVKSGYYFEIFNKEEIPTTLAKTKQKVKINNIQYDLYQGMSLDDERKIDDMFGDRMGYSIDDY | -1.04
HMENLFPDYTMQDYRIVRSELSSKFKVQTVPVTTATATENKIVRQEPEAGSRITEGMTVILYYSIGPE | -0.0582
HMPLYKYYTSYQIEPGDTLTSIAQKYTINSDVSVQDYIDEVKKNNNLVSDKINSGSYLVVSYYSNEY | -2.35
HMKTMAVYPVGTRVLTSDGEIGVVEKQNSEAPERPVIKILKGADGHDYEKPDFKDLMKILTLFIVDTI | 0.298
HMLKEKETRALANFTNKFFGLDISEDLKPIALSELSKFKKTHKISNLEEFINSFQYDFQNEKILSLLDIFL | -0.994
HMKEKLGEFENVFLSVDELQKLKSKLGAETESYIERLSNYIASSGKKYKSHYATILSWTQKDTK | -0.462
HMYEINEIIRERRLKKGLTQAQVAKYLGVSAPAVNKWEKGTTYPDLVLLPALARLLDTDLTTLLSF | -1.38
HMQIVHKHLQLQPDQGALRAALYSHKAVVAEQVNEQGAINLEIKLAESDFLRLLKSSGLKLQDLVSLS | -0.205
HMGDTLEIVVIYSNKQKAEEAVNNLKGKFEDLGYNFAIITVDTSKITQLAMESSIQYIEFPKSFYFSD | -1.64
HMRTTYKTRLETLLAGPMSAGDRRFASSLLDFYNRKNRLTPGRARFVAQLEDRYSAEALAARQG | -0.961
HMVGEPEPIRYSRFLDEMKSGKLDSVVIQGDTILGVRKDKSQFKTVNPETDYSALIGALDKAGVGIEGRA | 0.146
HMLPGWMETKFTANVSENTKNRTLEEHVLKMLNNKESAAEFIIFLHEKMMSVSGQVFQLDSR | 0.149
HMTPAKQVSAKAERWIDQLGSSDWEKREEAAAELKKLGGAAKSALEKALKNADPEVASKAEELLEALES | 0.0311
HMKKTDFNVENYDIEELAAILNFKYVPLNQGLIRDRIKDMKQRFKNKPEYIKFFTDVEIKLVNNLNLFN | -1.24
HMQAMDYEGFKKEILKMSDIDLSLYKEKQMKRRIDSLIRKNGYEHYEDYVQALKQDSGLYNEFINYLTI | 0.439
HMVLSVRDRMVQILDQVKTGEYKRIEDFFSADEGRTGFVVSFVAILELVKGGLLTITQSKNLAPIYVRLPN | -0.19
HMRLSVRQRMSDVLGALKTQAFVEFTQLFRPQEGRMGVTVTFSAILELLREGLIEIVQSEPFAPIHVRAGA | -0.0036
HMDAIAYLGSRLKEIRLKSGLSLREIARQLDVSPSFISQIENGKSQPSVATLYAFAKLLNVPVDVLFQPS | -1.05
HMAAPELLTVRERQVAALISDGLSNQQIAHRLHLEVTTVKAHIGSIFNRLDMNNRVQIAIWAHDRQLVFS | -0.266
